In patent publication US20150125477A1 (IMMATICS BIOTECHNOLOGIES, published 2015):

Target: T1, A*0201 (biotinylated pMHC monomer from UV-induced MHC ligand exchange) (human, biotin)
T1 construct: pMHC complexes for aAPC loading and multimer read-out
Test: pMHC complex from UV-induced MHC ligand exchange, used as control
Description: Generation of pMHC/anti-CD28 coated beads, T-cell stimulations and readout was performed in a highly defined in vitro system using four different pMHC molecules per stimulation condition and 8 different pMHC molecules per readout condition. […] In order to determine the amount of pMHC monomer obtained by exchange we performed streptavidin-based sandwich ELISAs according to (Rodenko et al., 2006). The purified co-stimulatory mouse IgG2a anti human CD28 Ab 9.3 (Jung et al., 1987) was chemically biotinylated using Sulfo-N-hydroxysuccinimidobiotin as recommended by the manufacturer (Perbio, Bonn, Germany). Beads used were 5.6 μm diameter streptavidin coated polystyrene particles (Bangs Laboratories, Illinois, USA).
Half of the medium was then exchanged by fresh TCM supplemented with 80 U/ml IL-2 and incubating was continued for 3-4 days at 37° C. […] Finally, multimeric analyses were performed by staining the cells with Live/dead near IR dye (Invitrogen, Karlsruhe, Germany), CD8-FITC antibody clone SK1 (BD, Heidelberg, Germany) and fluorescent pMHC multimers. For analysis, a BD LSRII SORP cytometer equipped with appropriate lasers and filters was used. Peptide specific cells were calculated as percentage of total CD8+ cells. Evaluation of multimeric analysis was done using the FlowJo software (Tree Star, Oregon, USA).

YLLPAIVHI (control for low immunogenic stimulation) [DDX5-001]
binding result: binds
